Legend:
Human TIGIT-His = target: T1, Human TIGIT-His (human, UniProt Q495A1 22-141, biotinylated in the ForteBio Fab assay); assay: ForteBio BLI, Fab KD, monovalent
T1 construct: bought (Creative Biomart); also called Biotinylated Human TIGIT HIS; TIGIT-His monomer; not shown: His tag
T1 sequence (looked up): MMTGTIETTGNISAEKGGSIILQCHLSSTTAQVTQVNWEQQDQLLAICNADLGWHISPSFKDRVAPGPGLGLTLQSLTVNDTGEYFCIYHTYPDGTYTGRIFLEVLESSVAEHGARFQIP

Cyno TIGIT-Fc = target: T2, Cyno TIGIT-Fc (cynomolgus, UniProt A0A7N9I9V4 89-209); assay: ForteBio BLI, Fab KD, monovalent
T2 construct: not shown: Fc part
T2 sequence (A0A7N9I9V4 entry or part of it): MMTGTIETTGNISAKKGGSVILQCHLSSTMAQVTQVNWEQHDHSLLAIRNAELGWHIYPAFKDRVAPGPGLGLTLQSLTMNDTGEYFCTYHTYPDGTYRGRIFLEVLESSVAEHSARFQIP

Human TIGIT-Fc = target: T3, Human TIGIT-Fc (human, UniProt Q495A1 22-141); assay: ForteBio BLI, IgG KD, avid
T3 construct: bought (Creative Biomart); also called TIGIT-Fc antigen; TIGIT-Fc fusion antigen; not shown: Fc part
T3 sequence (looked up): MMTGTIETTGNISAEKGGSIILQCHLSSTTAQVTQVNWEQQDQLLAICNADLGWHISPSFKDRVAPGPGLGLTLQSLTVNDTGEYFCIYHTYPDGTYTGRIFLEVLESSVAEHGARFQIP
Procedure: Briefly, ForteBio affinity measurements were performed by loading IgGs on-line onto AHQ sensors. Sensors were equilibrated off-line in assay buffer for 30 min and then monitored on-line for 60 seconds for baseline establishment. Sensors with loaded IgGs were exposed to 100 nM antigen (human TIGIT-Fc, human TIGIT-His or cyno TIGIT-Fc) for 5 minutes, afterwards they were transferred to assay buffer for 5 min for off-rate measurement. Kinetics were analyzed using the 1:1 binding model.

[1] = target: T4, human TIGIT expressed on cells (human, UniProt Q495A1 22-244); assay: cell-based or functional assay
T4 sequence (looked up): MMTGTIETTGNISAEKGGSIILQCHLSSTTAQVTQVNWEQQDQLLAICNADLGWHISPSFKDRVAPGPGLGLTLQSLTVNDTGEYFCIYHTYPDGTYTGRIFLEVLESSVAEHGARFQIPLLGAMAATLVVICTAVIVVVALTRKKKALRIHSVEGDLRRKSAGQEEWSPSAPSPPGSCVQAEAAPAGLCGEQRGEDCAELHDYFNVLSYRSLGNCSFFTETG

[2] = target: T4, human TIGIT expressed on cells; assay: flow cytometry, 100 nM Ab, Jurkat-hTIGIT vs untransfected
Procedure: (§1) Antibodies were incubated with the cells for 20 min at 4° C. in FACS buffer. […] Geometric mean fluorecence intensity was analysed using LSR BD Fortessa. Cell binding was recorded as the median florescence intensity of PE on the transfected line compared to the un-transfected line for each antibody (Table 3).

[3] = target: T5, mouse TIGIT expressed on cells (mouse, UniProt P86176 29-249); assay: flow cytometry, 100 nM Ab, Jurkat-mTIGIT vs untransfected
T5 construct: whole, on cells; on Jurkat cells engineered to express mouse TIGIT; also called mTIGIT; Jurkat-mTIGIT
T5 sequence (looked up): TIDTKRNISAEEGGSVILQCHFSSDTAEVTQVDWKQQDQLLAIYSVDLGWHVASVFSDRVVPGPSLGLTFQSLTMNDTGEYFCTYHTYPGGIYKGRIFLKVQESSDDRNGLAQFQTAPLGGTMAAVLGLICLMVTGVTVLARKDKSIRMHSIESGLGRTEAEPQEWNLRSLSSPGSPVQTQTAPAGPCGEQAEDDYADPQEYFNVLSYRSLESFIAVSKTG
Procedure: as §1

[4] = target: T4, human TIGIT expressed on cells; assay: cell-based or functional assay; remark: listed apart in the source

Row | Binder | Kd (Human TIGIT-His) [nM] | Kd (Cyno TIGIT-Fc) [nM] | Kd (Human TIGIT-Fc) [nM] | Induction over Isotype control (fold change), luciferase, Jurkat-hTIGIT + CHO-TCR-CD155, 133 nM [1] [fold] | FON (Fold Over Negative) [2] [fold] | FON (Fold Over Negative) [3] [fold] | further results
1 | Fab of anti-TIGIT clone 31288 (Fab, V domains shown, Fab) VH: QLQLQESGPGLVKPSETLSLTCTVSGGSISSGSYYLAWIRQPPGKGLEWIGSIFRSGSTYYNPSLESRVTISVDTSKNQFSLKLSSVTAADTAVYYCAIEGANFKDFGYVAFDIWGQGTTVTVSS VL: EIVMTQSPATLSVSPGERATLSCRASQSVSSNLAWYQQKPGQAPRLLIYGASTRATGIPARFSGSGSGTEFTLTISSLQSEDFAVYYCQQSPPWPRTFGGGTKVEIK | 2.09 | 25.1 |  |  |  |  | 
2 | Fab of anti-TIGIT clone 26486 (Fab, V domains shown) VH: QVQLQESGPGLVKPSETLSLTCAVSGYSISSGYYWAWIRQPPGKGLEWIGSIYHSGSTYYNPSLKSRVTISVDTSKNQFSLKLSSVTAADTAVYYCAIEGANYYDFGYVAFDIWGQGTMVTVSS VL: EIVMTQSPATLSVSPGERATLSCRASQSVSSNLAWYQQKPGQAPRLLIYGASTRATGIPARFSGSGSGTEFTLTISSLQSEDFAVYYCQQSPPWPRTFGGGTKVEIK | 21.9 |  |  |  |  |  | binding result (Cyno TIGIT-Fc): no binding
3 | Fab of anti-TIGIT clone 32931 (Fab, V domains shown, Fab) VH: QLQLQESGPGLVKPSETLSLTCTVSGGSISSGSYYLAWIRQPPGKGLEWIGSIFRSGSTYYNPSLESRVTISVDTSKNQFSLKLSSVTAADTAVYYCAIEGANFKDFGYVAFDIWGQGTTVTVSS VL: EIVMTQSPATLSVSPGERATLSCRASKSVSSNLAWYQQKPGQAPRLLIYFASTRATGIPARFSGSGSGTEFTLTISSLQSEDFAVYYCQQTSPWPRTFGGGTKVEIK | 1.18 | 1.97 |  |  |  |  | 
4 | anti-TIGIT antibody clone 32931 (IgG) (antibody, V domains shown, human IgG; light chain optimised from 31288) VH: QLQLQESGPGLVKPSETLSLTCTVSGGSISSGSYYLAWIRQPPGKGLEWIGSIFRSGSTYYNPSLESRVTISVDTSKNQFSLKLSSVTAADTAVYYCAIEGANFKDFGYVAFDIWGQGTTVTVSS VL: EIVMTQSPATLSVSPGERATLSCRASKSVSSNLAWYQQKPGQAPRLLIYFASTRATGIPARFSGSGSGTEFTLTISSLQSEDFAVYYCQQTSPWPRTFGGGTKVEIK |  |  |  |  | 741 |  | EC50 of Jurkat-hTIGIT cell activation (luciferase), FIG. 12B [4]: 3.2 nM
5 | anti-TIGIT antibody clone 26518 (IgG) (antibody, V domains shown, parent clone) VH: EVQLVESGGGLVQPGGSLRLSCAASGFTFSSYGMSWVRQAPGKGLEWVANIKQDGSEKYYVDSVKGRFTISRDNAKNSLYLQMNSLRAEDTAVYYCARVSYYYDSSKLRWAEYFQHWGQGTLVTVSS VL: EIVLTQSPATLSLSPGERATLSCRASQSVSSYLAWYQQKPGQAPRLLIYDASKRATGIPARFSGSGSGTDFTLTISSLEPEDFAVYYCQQVHNFPLTFGGGTKVEIK |  |  | 0.63 | 2.89 | 154 | 233 | 
6 | anti-TIGIT antibody clone 32919 (IgG) (antibody, V domains shown, human IgG; light chain optimised from 31288) VH: QLQLQESGPGLVKPSETLSLTCTVSGGSISSGSYYLAWIRQPPGKGLEWIGSIFRSGSTYYNPSLESRVTISVDTSKNQFSLKLSSVTAADTAVYYCAIEGANFKDFGYVAFDIWGQGTTVTVSS VL: EIVLTQSPATLSLSPGERATLSCRASQSVSSYLAWYQQKPGQAPRLLIYDASNRATGIPARFSGSGSGTDFTLTISSLEPEDFAVYYCQQENPRPRTFGGGTKVEIK |  |  |  |  | 680 |  | EC50 of Jurkat-hTIGIT cell activation (luciferase), FIG. 12B [4]: 2.7 nM
7 | anti-TIGIT antibody clone 26432 (IgG) (antibody, V domains shown, also called parental clone 26432) VH: QVQLVQSGAEVKKPGSSVKVSCKASGGTFSSYAISWVRQAPGQGLEWMGGIIPIFGTANYAQKFQGRVTITADESTSTAYMELSSLRSEDTAVYYCAREAQSYRVPFDIWGQGTMVTVSS VL: EIVMTQSPATLSVSPGERATLSCRASQSVSSNLAWYQQKPGQAPRLLIYGASTRATGIPARFSGSGSGTEFTLTISSLQSEDFAVYYCQQYAIWPPFTFGGGTKVEIK |  |  | 4.62 |  |  |  | 

The next lines start with results.

Row | Kd (Human TIGIT-His) [nM] | Kd (Cyno TIGIT-Fc) [nM] | Kd (Human TIGIT-Fc) [nM] | Induction over Isotype control (fold change), luciferase, Jurkat-hTIGIT + CHO-TCR-CD155, 133 nM [1] [fold] | FON (Fold Over Negative) [2] [fold] | FON (Fold Over Negative) [3] [fold] | Binder | further results
8 |  |  | 0.589 | 1.9 | 143 | 199 | anti-TIGIT antibody clone 26486 (IgG) (antibody, V domains shown, parent clone) VH: QVQLQESGPGLVKPSETLSLTCAVSGYSISSGYYWAWIRQPPGKGLEWIGSIYHSGSTYYNPSLKSRVTISVDTSKNQFSLKLSSVTAADTAVYYCAIEGANYYDFGYVAFDIWGQGTMVTVSS VL: EIVMTQSPATLSVSPGERATLSCRASQSVSSNLAWYQQKPGQAPRLLIYGASTRATGIPARFSGSGSGTEFTLTISSLQSEDFAVYYCQQSPPWPRTFGGGTKVEIK | 
9 | 1.42 | 6.57 |  |  |  |  | Fab of anti-TIGIT clone 32919 (Fab, V domains shown, Fab) VH: QLQLQESGPGLVKPSETLSLTCTVSGGSISSGSYYLAWIRQPPGKGLEWIGSIFRSGSTYYNPSLESRVTISVDTSKNQFSLKLSSVTAADTAVYYCAIEGANFKDFGYVAFDIWGQGTTVTVSS VL: EIVLTQSPATLSLSPGERATLSCRASQSVSSYLAWYQQKPGQAPRLLIYDASNRATGIPARFSGSGSGTDFTLTISSLEPEDFAVYYCQQENPRPRTFGGGTKVEIK | 
10 | 1.24 | 4.47 |  |  |  |  | Fab of anti-TIGIT clone 26518 (Fab, V domains shown) VH: EVQLVESGGGLVQPGGSLRLSCAASGFTFSSYGMSWVRQAPGKGLEWVANIKQDGSEKYYVDSVKGRFTISRDNAKNSLYLQMNSLRAEDTAVYYCARVSYYYDSSKLRWAEYFQHWGQGTLVTVSS VL: EIVLTQSPATLSLSPGERATLSCRASQSVSSYLAWYQQKPGQAPRLLIYDASKRATGIPARFSGSGSGTDFTLTISSLEPEDFAVYYCQQVHNFPLTFGGGTKVEIK | 
11 |  |  | 0.527 | 3.57 | 182 | 500 | anti-TIGIT antibody clone 29478 (IgG) (antibody, V domains shown) VH: EVQLVESGGGVVQPGRSLRLSCAASGFTFESYGMVWVRQAPGKGLEWVASILYDGSNRYYADSVKGRFTVSRDNSKNTLYLQMNSLRAEDTAVYYCARVSYYYDSVELRWAEYFQHWGQGTLVTVSS VL: EIVLTQSPATLSLSPGERATLSCRASQSVSSYLAWYQQKPGQAPRLLIYDASKRATGIPARFSGSGSGTDFTLTISSLEPEDFAVYYCQQVHNFPLTFGGGTKVEIK | 
12 |  |  | 0.541 | 2.66 | 146 | 218 | anti-TIGIT antibody clone 26521 (IgG) (antibody, V domains shown, parent clone) VH: QVQLVQSGAEVKKPGSSVKVSCKASGGTFSSYAISWVRQAPGQGLEWMGGIIPIFGTANYAQKFQGRVTITADESTSTAYMELSSLRSEDTAVYYCARLHLGSSAYYGMDVWGQGTTVTVSS VL: DIQMTQSPSSLSASVGDRVTITCRASQSISSYLNWYQQKPGKAPKLLIYAASSLQSGVPSRFSGSGSGTDFTLTISSLQPEDFATYYCQQRYVFPPTFGGGTKVEIK | 
13 | 9.87 | 149 |  |  |  |  | Fab of anti-TIGIT clone 26521 (Fab, V domains shown) VH: QVQLVQSGAEVKKPGSSVKVSCKASGGTFSSYAISWVRQAPGQGLEWMGGIIPIFGTANYAQKFQGRVTITADESTSTAYMELSSLRSEDTAVYYCARLHLGSSAYYGMDVWGQGTTVTVSS VL: DIQMTQSPSSLSASVGDRVTITCRASQSISSYLNWYQQKPGKAPKLLIYAASSLQSGVPSRFSGSGSGTDFTLTISSLQPEDFATYYCQQRYVFPPTFGGGTKVEIK | 

Source: patent publication US20200407445A1 (ITEOS THERAPEUTICS, published 2020)
